According to patent US20240425559A1 (UNIVERSITY OF PITTSBURGH OF THE COMMONWEALTH SYSTEM OF …, published 2024):
Numbering of substitutions follows the chain as printed. Names may count otherwise. Blank lines part the entries; values can stand above or below the binder they belong to.

How the values were obtained:
[1] = biological target: TGF-β type II receptor (TβRII) on HEK-293 CAGA-Luc TGF-β reporter cells (UniProt P37173 23-567, limits assumed); experiment: cell-based or functional assay
[2] = biological target: T1, TGF-β type II receptor (TβRII) (UniProt P37173 38-159); experiment: ITC, TβRII injected into the monomer, three replicates globally fit to a 1:1 model
T1 construct: A purified protein was injected in ITC and run on native gels; also called TbRII; transforming growth factor-β type II receptor
Description: (§1) FIG. 5: Binding of the engineered TGF-beta monomers (mmTGF-β2-7M, left; mmTGF-β2-7M2R, middle; and mmTGF-β2-2M-Del7-16, right) to the TGF-β type II receptor (TβRII) as detected by isothermal titration calorimetry (ITC). Upper panels depict the raw thermograms for three replicate titrations, while the lower panels depict the integrated heat (data points) for the three replicate titrations globally fit to a 1:1 binding isotherm (smooth line).
(§2) In order to evaluate the ability of the mmTGF-β2-7M variants described herein (mmTGF-β2-7M2R (SEQ ID NO: 4), mmTGF-β2-2M-Del7-16 (SEQ ID NO: 5), and mmTGF-β2-7M-PRDC (SEQ ID NO: 7)) to bind TβRII, isothermal titration calorimetry (ITC) and native gels were used. The ITC binding experiments were performed by injecting increasing amounts of TβRII into mmTGF-β2-7M2R (SEQ ID NO: 4) or mmTGF-β2-2M-Del7-16 (SEQ ID NO: 5), with mmTGF-β2-7M (SEQ ID NO: 3) used a reference control. These titrations yielded readily detectable isotherms with a large negative enthalpy and a near 1:1 binding stoichiometry (FIG. 5).

[3] = biological target: T1, TGF-β type II receptor (TβRII); experiment: ITC; TβRII injected into the monomer; three replicate titrations globally fit to a 1:1 binding isotherm
Description: as §1, §2

TGF-β type II receptor (TβRII) on HEK-293 CAGA-Luc TGF-β reporter cells, sequence (P37173 23-567 limits assumed): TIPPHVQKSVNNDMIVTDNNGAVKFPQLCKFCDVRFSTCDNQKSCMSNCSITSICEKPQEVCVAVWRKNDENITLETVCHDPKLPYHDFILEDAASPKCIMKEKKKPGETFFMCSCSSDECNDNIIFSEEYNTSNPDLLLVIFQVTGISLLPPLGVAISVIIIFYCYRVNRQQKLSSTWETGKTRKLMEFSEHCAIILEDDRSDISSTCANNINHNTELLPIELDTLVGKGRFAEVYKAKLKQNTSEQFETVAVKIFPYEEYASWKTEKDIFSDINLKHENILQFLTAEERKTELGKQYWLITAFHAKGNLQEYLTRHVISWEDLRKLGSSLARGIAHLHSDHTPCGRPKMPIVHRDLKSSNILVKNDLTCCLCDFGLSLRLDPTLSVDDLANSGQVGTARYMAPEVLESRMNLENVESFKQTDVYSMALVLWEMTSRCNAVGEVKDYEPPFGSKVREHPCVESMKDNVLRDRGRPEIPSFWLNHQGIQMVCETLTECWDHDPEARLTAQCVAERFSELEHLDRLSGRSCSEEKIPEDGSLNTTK
T1 sequence (P37173 38-159 limits assumed): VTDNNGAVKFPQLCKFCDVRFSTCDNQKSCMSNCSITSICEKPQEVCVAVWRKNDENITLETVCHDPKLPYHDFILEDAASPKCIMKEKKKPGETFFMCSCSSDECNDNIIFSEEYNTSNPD

IC50, HEK-293 CAGA-Luc TGF-β reporter assay, stimulation with 10 pM TGF-β3 [1]: 58.2 nM | Kd [2]: 60.5 nM | ΔG [3]: -9.85 kcal/mol | ΔH [3]: -4.63 kcal/mol | ΔS [3]: 17.5 cal/mol•K
B1: mmTGF-β2-7M (ligand)
chain: ALDAAYCFRNVQDNCCLRPLYIDFRKDLGWKWIHEPKGYNANFCAGACPYRASKSPSCVSQDLEPLTIVYYVGRKPKVEQLSNMIVKSCKCS
notes: also called engineered human TGF-β2 monomer mmTGF-β2-7M; mmTGF-B27M

IC50, HEK-293 CAGA-Luc TGF-β reporter assay, stimulation with 10 pM TGF-β3 [1]: 53.3 nM | Kd [2]: 75.1 nM | ΔG [3]: -10.1 kcal/mol | ΔH [3]: -10.5 kcal/mol | ΔS [3]: -1.44 cal/mol•K
B2: mmTGF-β2-7M2R (ligand)
chain: B1 chain with S57R, V59R

IC50, HEK-293 CAGA-Luc TGF-β reporter assay, stimulation with 10 pM TGF-β3 [1]: 111 nM | Kd [2]: 80.1 nM | ΔG [3]: -10 kcal/mol | ΔH [3]: -7.67 kcal/mol
B3: mmTGF-β2-2M-Del7-16 (ligand)
chain: B1 chain with C7V, C16A, K26R, V69L, V72I, K75T, V78I

IC50, HEK-293 CAGA-Luc TGF-β reporter assay, stimulation with 10 pM TGF-β3 [1]: 282 nM | fold change of IC50 relative to mmTGF-β2-7M, HEK-293 CAGA-Luc TGF-β reporter assay [1]: ~5 fold
B4: mmTGF-β2-7M-PRDC (ligand)
chain: KEVLASSQEALVVTERKYLKSDWCKLRPLYIDFRKDLGWKWIHEPKGYNANFCYGQCNSFYIPRHVKKEEDSFQSSAFCVSQDLEPLTIVYYVGRKPKVEQLSNMIVKSCRCMSV
